According to patent US20240091382A1, “MINIMAL BILE ACID INDUCIBLE PROMOTERS FOR GENE THERAPY” (priority 2020, published 2024):

B1: imPr+1xIR: imPr variant with one extra repeat of the murine IR-1 element at the 5′end (SEQ ID NO: 6) (nucleic acid)
DNA: TTAGGCCATTGACCTAGGTTCCTGCTTTGAGTATGTTCGACCTTTCCTCTCATGTCACTGAACTGTGCTAGATCTGGACTTTAGGCCATTGACCTATAAGCAAATAGATAGTGTTCTTAAAAAAGCCTGATTTCTGTTCAATGCTTTATTACCATGAAAACTGAACTTGGAAAGGGGTGTACAACCCTGACTTTCCACAGTGGCGTCTCTCGCTTCTCCTGGCTCCCTCAAATTCACA
modifications: Synthetic imPR+1xIR
B2: imPr+3xIR: imPr variant with three extra repeats of the murine IR-1 element (SEQ ID NO: 7) (nucleic acid)
DNA: TTAGGCCATTGACCTATTAGGCCATTGACCTATTAGGCCATTGACCTAGGTTCCTGCTTTGAGTATGTTCGACCTTTCCTCTCATGTCACTGAACTGTGCTAGATCTGGACTTTAGGCCATTGACCTATAAGCAAATAGATAGTGTTCTTAAAAAAGCCTGATTTCTGTTCAATGCTTTATTACCATGAAAACTGAACTTGGAAAGGGGTGTACAACCCTGACTTTCCACAGTGGCGTCTCTCGCTTCTCCTGGCTCCCTCAAATTCACA
modifications: Synthetic imPR+3xIR
B3: imPr+5xIR: imPr variant with five extra repeats of the murine IR-1 element (SEQ ID NO: 19) (nucleic acid)
DNA: TTAGGCCATTGACCTATTAGGCCATTGACCTATTAGGCCATTGACCTATTAGGCCATTGACCTATTAGGCCATTGACCTAGGTTCCTGCTTTGAGTATGTTCGACCTTTCCTCTCATGTCACTGAACTGTGCTAGATCTGGACTTTAGGCCATTGACCTATAAGCAAATAGATAGTGTTCTTAAAAAAGCCTGATTTCTGTTCAATGCTTTATTACCATGAAAACTGAACTTGGAAAGGGGTGTACAACCCTGACTTTCCACAGTGGCGTCTCTCGCTTCTCCTGGCTCCCTCAAATTCACA
modifications: Synthetic imPR+5xIR
B4: imPr+3xIR-ER2: imPr variant with three repetitions of the IR-1-ER2 element (SEQ ID NO: 20) (nucleic acid)
DNA: TGGACTTTAGGCCATTGACCTATGGACTTTAGGCCATTGACCTATGGACTTTAGGCCATTGACCTAGGTTCCTGCTTTGAGTATGTTCGACCTTTCCTCTCATGTCACTGAACTGTGCTAGATCTGGACTTTAGGCCATTGACCTATAAGCAAATAGATAGTGTTCTTAAAAAAGCCTGATTTCTGTTCAATGCTTTATTACCATGAAAACTGAACTTGGAAAGGGGTGTACAACCCTGACTTTCCACAGTGGCGTCTCTCGCTTCTCCTGGCTCCCTCAAATTCACA
modifications: Synthetic imPr+3xIR-ER2
B5: imPr+LRH-1: slightly longer imPr variant including the upstream LRH-1 element (SEQ ID NO: 21) (nucleic acid)
DNA: TTTCTAAAGCTTGTTGATACCCTCAGAAGGTCCCCACGCACTCTGGGTTTGGGTTCCTGCTTTGAGTATGTTCGACCTTTCCTCTCATGTCACTGAACTGTGCTAGATCTGGACTTTAGGCCATTGACCTATAAGCAAATAGATAGTGTTCTTAAAAAAGCCTGATTTCTGTTCAATGCTTTATTACCATGAAAACTGAACTTGGAAAGGGGTGTACAACCCTGACTTTCCACAGTGGCGTCTCTCGCTTCTCCTGGCTCCCTCAAATTCACA
modifications: Synthetic imPr+ LRH-1

test system: Huh-7 cells; experiment: Luciferase expression from BSEP-derived promoter plasmids in Huh-7 cells (FXR co-transfection, CDCA induction); format: cell-based, human; conditions: Huh-7, pCMV-hFXRα2, 30 μM CDCA
Experimental: FIG. 2. […] In all cases, cells were also transfected with a Renilla expressing plasmid (pRL-CMV). Luciferase and Renilla expression were measured with a luminometer. All samples were tested in triplicates and data are presented as mean±SEM of relative (rel.) units (Luciferase units sec^−1/Renilla units sec^−1). The fold induction of each condition relative to cells transfected only with the luciferase plasmid (Luc plasmid) is indicated on top of each column. The statistical comparison between these two conditions was performed by using an unpaired […] T test. *, p<0.05; **, p<0.01; ***, p<0.001. imPr and ihPr, pAAV-imPr-LucPEST and pAAV-ihPr-LucPEST, respectively; full length mPr, pAAV-mBSEPpr-LucPEST; full length hPr, p-2563/+4-Luc; A1AT, pAAV-A1AT-LucPEST.
FIG. 18. […] In all cases, cells were also transfected with the same amount of Renilla expressing plasmid (pRL-CMV) to determine the transfection efficiency. Luciferase and Renilla expression were measured with a luminometer. All samples were tested in triplicates and data are presented as mean±SEM of relative (rel.) units (Luciferase units sec^−1/Renilla units sec^−1). The fold induction of each condition relative to cells transfected only with the luciferase plasmid (Luc plasmid) is indicated on top of each column. The statistical comparison between these two conditions was performed by using an unpaired T test. *, p<0.05; **, p<0.01; ***, p<0.001; ****, p<0.0001.
The inventors first tested whether luciferase expression could be induced by bile salts in hepatic cells from human (Huh-7 and HepG2) and mouse origin (Hepa1-6). For this purpose, they transfected confluent monolayers of these cells in 12-well plates with 0.5 μg pAAV-miPr-LucPEST or pAAV-hiPr-LucPEST plasmids, or with the same amount of control plasmids (pAAV-mBSEPpr-LucPEST, p-2563/+4-Luc and pAAV-A1AT-LucPEST), together with 0.5 μg of plasmids expressing either human FXRα1 (pcDNA3.1-hFXRα1, ordered from GenScript) or FXRα2 (pCMV-hFXRα2, ref NR1H4 cDNA Resource Center, Bloomsburg, PA), two isoforms of FXR that can exert different transcriptional regulation). […] Furthermore, to normalize luciferase expression, and correct for differences in transfection efficiencies, the inventors also co-transfected cells with 0.2 μg of a plasmid expressing Renilla-luciferase from a constitutive promoter (pRL-CMV, Promega). All transfections were performed using lipofectamine 2000 (Thermo Fisher). […] After induction, cells were collected and luciferase and Renilla expression were measured in cell extracts using an Orion L Microplate Luminometer.
The inventors tested luciferase expression of plasmids containing the variants of imPr promoter in Huh-7 cells as described above. Briefly, the inventors transfected confluent cell monolayers in 12-well plates with 0.5 μg of each of the corresponding plasmids, using as control pAAV-miPr-LucPEST, together with 0.5 μg of pCMV-hFXRa2 using lipofectamine 2000. To normalize luciferase expression, the inventors co-transfected cells with 0.2 μg of a plasmid expressing Renilla-luciferase from a constitutive promoter (pRL-CMV). […] After induction, cells were collected and luciferase and Renilla expression were measured in cell extracts as described.

Row | Molecule | level of luciferase expression compared to plasmid containing imPr promoter | luciferase expression compared to imPr+1xIR
1 | B1 | significantly higher level of luciferase expression | –
2 | B2 | significantly higher level of luciferase expression | significantly higher luciferase expression than imPr+1xIR
3 | B3 | not observed | –
4 | B4 | not observed | –
5 | B5 | not observed | –
